Experimental data reported in PMC9482650, “Quantitative fragmentomics allow affinity mapping of interactomes” (Nature Communications, 2022).

T1: DVL3, Q92997
T1 sequence (Q92997 244-331, limits assumed, looked up): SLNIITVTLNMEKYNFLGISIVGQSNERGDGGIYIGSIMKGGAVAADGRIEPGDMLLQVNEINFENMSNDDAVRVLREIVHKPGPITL

T2: TJP3_3, O95049
T2 sequence (O95049 375-456, limits assumed, looked up): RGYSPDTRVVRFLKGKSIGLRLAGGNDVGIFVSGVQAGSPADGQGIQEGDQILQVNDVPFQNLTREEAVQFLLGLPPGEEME

T3: DFNB31_3, Q9P202
T3 sequence (Q9P202 811-907, limits assumed, looked up): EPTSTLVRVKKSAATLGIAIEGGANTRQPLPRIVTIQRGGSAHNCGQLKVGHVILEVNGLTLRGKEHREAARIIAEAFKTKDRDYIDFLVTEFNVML

T4: GRIP1_3, Q9Y3R0
T4 sequence (Q9Y3R0 247-346, limits assumed, looked up): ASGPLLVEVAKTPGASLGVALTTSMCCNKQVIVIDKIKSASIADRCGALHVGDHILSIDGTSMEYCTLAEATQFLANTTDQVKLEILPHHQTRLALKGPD

T5: NHERF3_3, Q5T2W1
T5 sequence (Q5T2W1 238-333, limits assumed, looked up): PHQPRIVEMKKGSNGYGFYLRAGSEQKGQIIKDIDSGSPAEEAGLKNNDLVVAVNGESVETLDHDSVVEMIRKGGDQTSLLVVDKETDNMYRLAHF

T6: PDZD2_2, O15018
T6 sequence (O15018 329-429, limits assumed, looked up): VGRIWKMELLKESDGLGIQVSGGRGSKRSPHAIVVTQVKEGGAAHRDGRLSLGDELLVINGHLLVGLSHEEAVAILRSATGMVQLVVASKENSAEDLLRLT

T7: APBA1_2, Q02410
T7 sequence (Q02410 742-832, limits assumed, looked up): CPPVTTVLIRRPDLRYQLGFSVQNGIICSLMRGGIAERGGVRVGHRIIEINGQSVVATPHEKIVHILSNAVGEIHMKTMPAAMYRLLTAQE

T8: LRRC7, Q96NW7
T8 sequence (Q96NW7 1440-1537, limits assumed, looked up): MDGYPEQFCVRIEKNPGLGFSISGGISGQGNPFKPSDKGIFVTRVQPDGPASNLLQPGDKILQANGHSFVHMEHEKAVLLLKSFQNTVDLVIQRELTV

T9: APBA3_1, O96018
T9 sequence (O96018 389-490, limits assumed, looked up): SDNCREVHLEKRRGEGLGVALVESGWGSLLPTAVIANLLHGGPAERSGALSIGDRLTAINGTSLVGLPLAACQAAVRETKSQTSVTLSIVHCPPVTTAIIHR

T10: PDZD7_3, Q9H5P4
T10 sequence (Q9H5P4 857-944, limits assumed, looked up): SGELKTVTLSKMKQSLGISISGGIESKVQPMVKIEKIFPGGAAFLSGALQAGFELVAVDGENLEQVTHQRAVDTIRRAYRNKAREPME

T11: LNX2_3, Q8N448
T11 sequence (Q8N448 463-564, limits assumed, looked up): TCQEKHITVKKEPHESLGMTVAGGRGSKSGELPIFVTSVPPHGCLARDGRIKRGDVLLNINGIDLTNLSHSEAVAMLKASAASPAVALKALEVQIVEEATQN

T12: HTRA3, P83110
T12 sequence (P83110 354-453, limits assumed, looked up): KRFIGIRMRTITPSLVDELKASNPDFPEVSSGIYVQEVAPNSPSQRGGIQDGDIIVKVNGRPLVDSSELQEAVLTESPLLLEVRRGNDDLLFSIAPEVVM

T13: APBA2_1, Q99767
T13 sequence (Q99767 563-664, limits assumed, looked up): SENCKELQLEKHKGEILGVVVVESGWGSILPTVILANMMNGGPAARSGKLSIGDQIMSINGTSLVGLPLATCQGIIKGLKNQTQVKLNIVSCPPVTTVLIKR

T14: NHERF3_4, Q5T2W1
T14 sequence (Q5T2W1 373-468, limits assumed, looked up): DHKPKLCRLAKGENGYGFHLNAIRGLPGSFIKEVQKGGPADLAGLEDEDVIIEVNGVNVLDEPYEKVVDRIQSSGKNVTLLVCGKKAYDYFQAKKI


Legend:
Experiment in all cases: holdup assay
Parameters in all cases: key: below the threshold = too weak to quantify, mostly under pKd 3.1 to 4
Settings in all cases: plain residues with an end cap or a label only (N-terminal biotin on a linker: ado-ado)
DVL3, Q92997 = molecular target: T1, DVL3, Q92997
TJP3_3, O95049 = molecular target: T2, TJP3_3, O95049
DFNB31_3, Q9P202 = molecular target: T3, DFNB31_3, Q9P202
GIPC2, Q8TF65 = molecular target: GIPC2, Q8TF65
GRIP2_7, Q9C0E4 = molecular target: GRIP2_7, Q9C0E4
GRIP1_3, Q9Y3R0 = molecular target: T4, GRIP1_3, Q9Y3R0
Inadl_9, Q8NI35 = molecular target: Inadl_9, Q8NI35
FRMPD2_3, Q68DX3 = molecular target: FRMPD2_3, Q68DX3
IL16_3, Q14005 = molecular target: IL16_3, Q14005
NHERF3_3, Q5T2W1 = molecular target: T5, NHERF3_3, Q5T2W1
PDZD2_2, O15018 = molecular target: T6, PDZD2_2, O15018
TJP1_3, Q07157 = molecular target: TJP1_3, Q07157
Inadl_5, Q8NI35 = molecular target: Inadl_5, Q8NI35
APBA1_2, Q02410 = molecular target: T7, APBA1_2, Q02410
LRRC7, Q96NW7 = molecular target: T8, LRRC7, Q96NW7
APBA3_1, O96018 = molecular target: T9, APBA3_1, O96018
PDZD7_3, Q9H5P4 = molecular target: T10, PDZD7_3, Q9H5P4
DLG2_2, Q15700 = molecular target: DLG2_2, Q15700
LNX2_3, Q8N448 = molecular target: T11, LNX2_3, Q8N448
HTRA3, P83110 = molecular target: T12, HTRA3, P83110
APBA2_1, Q99767 = molecular target: T13, APBA2_1, Q99767
NHERF3_4, Q5T2W1 = molecular target: T14, NHERF3_4, Q5T2W1
MAST1, Q9Y2H9 = molecular target: MAST1, Q9Y2H9
LNX1_1, Q8TBB1 = molecular target: LNX1_1, Q8TBB1
Chain of LNX1_1, Q8TBB1 (Q8TBB1 261-371): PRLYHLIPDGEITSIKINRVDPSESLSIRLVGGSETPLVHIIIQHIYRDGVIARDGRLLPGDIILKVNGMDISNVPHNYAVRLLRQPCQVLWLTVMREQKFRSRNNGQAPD

Chain of GIPC2, Q8TF65 (Q8TF65 112-203): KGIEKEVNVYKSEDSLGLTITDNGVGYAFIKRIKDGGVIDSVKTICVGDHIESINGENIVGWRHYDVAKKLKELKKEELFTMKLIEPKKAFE
Chain of DLG2_2, Q15700 (Q15700 189-283): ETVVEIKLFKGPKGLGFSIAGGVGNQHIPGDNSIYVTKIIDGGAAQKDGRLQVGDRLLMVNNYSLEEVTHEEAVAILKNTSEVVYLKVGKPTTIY
Chain of Inadl_9, Q8NI35 (Q8NI35 1530-1615): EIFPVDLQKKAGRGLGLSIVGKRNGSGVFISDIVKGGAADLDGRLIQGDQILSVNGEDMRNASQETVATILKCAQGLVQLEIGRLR
Chain of FRMPD2_3, Q68DX3 (Q68DX3 1073-1166): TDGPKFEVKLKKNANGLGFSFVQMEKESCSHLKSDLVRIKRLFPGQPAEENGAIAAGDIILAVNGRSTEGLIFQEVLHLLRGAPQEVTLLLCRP
Chain of Inadl_5, Q8NI35 (Q8NI35 673-780): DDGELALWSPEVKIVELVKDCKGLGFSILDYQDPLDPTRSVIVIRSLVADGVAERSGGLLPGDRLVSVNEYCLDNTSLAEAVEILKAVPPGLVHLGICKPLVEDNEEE
Chain of GRIP2_7, Q9C0E4 (Q9C0E4 934-1023): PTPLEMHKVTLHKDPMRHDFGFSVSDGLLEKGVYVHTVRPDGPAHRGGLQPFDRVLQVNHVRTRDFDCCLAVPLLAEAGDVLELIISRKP
Chain of TJP1_3, Q07157 (Q07157 416-512): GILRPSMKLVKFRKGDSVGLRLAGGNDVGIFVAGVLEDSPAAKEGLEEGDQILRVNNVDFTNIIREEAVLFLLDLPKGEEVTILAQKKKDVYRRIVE
Chain of MAST1, Q9Y2H9 (Q9Y2H9 962-1065): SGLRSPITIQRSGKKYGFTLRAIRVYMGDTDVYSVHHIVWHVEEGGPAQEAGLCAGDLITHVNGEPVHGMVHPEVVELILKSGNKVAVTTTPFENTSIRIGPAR
Chain of IL16_3, Q14005 (Q14005 1107-1207): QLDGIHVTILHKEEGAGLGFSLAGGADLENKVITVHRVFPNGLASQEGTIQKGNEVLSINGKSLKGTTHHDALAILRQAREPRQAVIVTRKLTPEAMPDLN

Binder	pKd (DVL3, Q92997)	pKd (TJP3_3, O95049)	pKd (DFNB31_3, Q9P202)	pKd (GIPC2, Q8TF65)	pKd (GRIP2_7, Q9C0E4)	pKd (GRIP1_3, Q9Y3R0)	pKd (Inadl_9, Q8NI35)	pKd (FRMPD2_3, Q68DX3)	pKd (IL16_3, Q14005)	pKd (NHERF3_3, Q5T2W1)	pKd (PDZD2_2, O15018)	pKd (TJP1_3, Q07157)	pKd (Inadl_5, Q8NI35)	pKd (APBA1_2, Q02410)	pKd (LRRC7, Q96NW7)	pKd (APBA3_1, O96018)	pKd (PDZD7_3, Q9H5P4)	pKd (DLG2_2, Q15700)	pKd (LNX2_3, Q8N448)	pKd (HTRA3, P83110)	further results
SGSLKLMTTV [DACT1, Q9NYF0]	below the threshold	below the threshold	4.03	below the threshold	below the threshold	below the threshold	below the threshold	below the threshold	below the threshold	below the threshold	3.92	below the threshold	below the threshold	3.5	below the threshold	below the threshold	5.22	5.24	below the threshold	below the threshold	pKd (APBA2_1, Q99767): below the threshold; pKd (NHERF3_4, Q5T2W1): below the threshold; pKd (MAST1, Q9Y2H9): 3.97; pKd (LNX1_1, Q8TBB1): 4.04
SNAGNTATKA [NOSTRIN, Q8IVI9]	below the threshold	below the threshold	below the threshold	below the threshold	below the threshold	below the threshold	below the threshold	below the threshold	below the threshold	below the threshold	below the threshold	below the threshold	below the threshold	below the threshold	below the threshold	below the threshold	below the threshold	below the threshold	below the threshold	below the threshold	pKd (APBA2_1, Q99767): below the threshold; pKd (NHERF3_4, Q5T2W1): below the threshold; pKd (MAST1, Q9Y2H9): below the threshold; pKd (LNX1_1, Q8TBB1): below the threshold
TKGPRGPTRV [SAPCD1, Q5SSQ6]	below the threshold	below the threshold	below the threshold	below the threshold	below the threshold	below the threshold	4.11	below the threshold	below the threshold	below the threshold	3.88	below the threshold	3.61	4.47	below the threshold	below the threshold	4.74	4.38	below the threshold	below the threshold	pKd (APBA2_1, Q99767): below the threshold; pKd (NHERF3_4, Q5T2W1): below the threshold; pKd (MAST1, Q9Y2H9): 4.09; pKd (LNX1_1, Q8TBB1): below the threshold

Further lines, with some results ahead:

pKd (DVL3, Q92997)	pKd (TJP3_3, O95049)	pKd (DFNB31_3, Q9P202)	pKd (GIPC2, Q8TF65)	pKd (GRIP2_7, Q9C0E4)	pKd (GRIP1_3, Q9Y3R0)	pKd (Inadl_9, Q8NI35)	pKd (FRMPD2_3, Q68DX3)	pKd (IL16_3, Q14005)	pKd (NHERF3_3, Q5T2W1)	pKd (PDZD2_2, O15018)	pKd (TJP1_3, Q07157)	pKd (Inadl_5, Q8NI35)	pKd (APBA1_2, Q02410)	pKd (LRRC7, Q96NW7)	pKd (APBA3_1, O96018)	pKd (PDZD7_3, Q9H5P4)	pKd (DLG2_2, Q15700)	pKd (LNX2_3, Q8N448)	pKd (HTRA3, P83110)	Binder	further results
below the threshold	3.59	below the threshold	4.37	below the threshold	below the threshold	3.75	3.54	below the threshold	below the threshold	5.27	below the threshold	3.54	3.79	3.73	below the threshold	4.56	4.45	below the threshold	below the threshold	QGPVETESVV [SLC45A4, Q5BKX6]	pKd (APBA2_1, Q99767): below the threshold; pKd (NHERF3_4, Q5T2W1): below the threshold; pKd (MAST1, Q9Y2H9): 4.36; pKd (LNX1_1, Q8TBB1): 3.95
below the threshold	below the threshold	4.03	below the threshold	below the threshold	below the threshold	below the threshold	below the threshold	below the threshold	below the threshold	3.92	below the threshold	below the threshold	below the threshold	below the threshold	below the threshold	5.23	4.07	below the threshold	below the threshold	ETQVTAETVI [TMEM225B, P0DP42]	pKd (APBA2_1, Q99767): below the threshold; pKd (NHERF3_4, Q5T2W1): below the threshold; pKd (MAST1, Q9Y2H9): 4.31; pKd (LNX1_1, Q8TBB1): 3.59
below the threshold	below the threshold	3.85	below the threshold	below the threshold	below the threshold	below the threshold	below the threshold	below the threshold	below the threshold	below the threshold	below the threshold	below the threshold	below the threshold	below the threshold	below the threshold	below the threshold	below the threshold	below the threshold	4.38	KKAPTNEFYA [SDC4, P31431]	pKd (APBA2_1, Q99767): below the threshold; pKd (NHERF3_4, Q5T2W1): below the threshold; pKd (MAST1, Q9Y2H9): below the threshold; pKd (LNX1_1, Q8TBB1): below the threshold
